Values of other authors as cited in publication PMC3161823.

Target: Complement factor H (Homo sapiens) (UniProt P08603)
Sequence (P08603 19-1231): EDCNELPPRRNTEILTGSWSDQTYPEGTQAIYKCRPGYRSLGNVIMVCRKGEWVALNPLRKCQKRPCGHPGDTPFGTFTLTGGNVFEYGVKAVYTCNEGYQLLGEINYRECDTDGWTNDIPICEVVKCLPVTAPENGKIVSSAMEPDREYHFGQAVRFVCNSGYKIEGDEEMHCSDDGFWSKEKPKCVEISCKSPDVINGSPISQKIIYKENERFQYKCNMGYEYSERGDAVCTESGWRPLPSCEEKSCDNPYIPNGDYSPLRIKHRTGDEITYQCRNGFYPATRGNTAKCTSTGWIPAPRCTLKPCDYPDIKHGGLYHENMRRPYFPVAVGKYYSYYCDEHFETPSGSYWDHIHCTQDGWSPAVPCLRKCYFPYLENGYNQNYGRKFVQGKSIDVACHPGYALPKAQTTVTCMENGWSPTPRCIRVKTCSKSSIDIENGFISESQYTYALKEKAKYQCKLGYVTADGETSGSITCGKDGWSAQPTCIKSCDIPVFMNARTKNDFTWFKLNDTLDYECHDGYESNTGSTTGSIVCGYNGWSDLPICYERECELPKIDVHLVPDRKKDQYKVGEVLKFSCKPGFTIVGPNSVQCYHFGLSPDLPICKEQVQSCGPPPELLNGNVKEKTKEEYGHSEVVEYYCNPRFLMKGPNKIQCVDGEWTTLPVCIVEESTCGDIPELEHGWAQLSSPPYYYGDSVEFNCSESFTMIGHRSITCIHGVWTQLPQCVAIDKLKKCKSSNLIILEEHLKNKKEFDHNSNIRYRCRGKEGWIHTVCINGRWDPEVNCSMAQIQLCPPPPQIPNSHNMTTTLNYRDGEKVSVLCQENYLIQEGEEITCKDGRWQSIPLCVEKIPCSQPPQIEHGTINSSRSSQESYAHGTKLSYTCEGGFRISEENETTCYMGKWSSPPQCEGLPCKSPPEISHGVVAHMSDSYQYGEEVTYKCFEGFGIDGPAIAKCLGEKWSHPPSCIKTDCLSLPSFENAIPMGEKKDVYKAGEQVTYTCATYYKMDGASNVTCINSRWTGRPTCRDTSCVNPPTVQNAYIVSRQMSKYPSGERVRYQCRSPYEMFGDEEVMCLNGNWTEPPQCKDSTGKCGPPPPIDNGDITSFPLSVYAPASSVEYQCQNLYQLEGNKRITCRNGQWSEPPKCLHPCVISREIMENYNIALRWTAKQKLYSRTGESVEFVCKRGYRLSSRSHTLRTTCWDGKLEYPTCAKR

PTX3, sequence (P26022 18-381): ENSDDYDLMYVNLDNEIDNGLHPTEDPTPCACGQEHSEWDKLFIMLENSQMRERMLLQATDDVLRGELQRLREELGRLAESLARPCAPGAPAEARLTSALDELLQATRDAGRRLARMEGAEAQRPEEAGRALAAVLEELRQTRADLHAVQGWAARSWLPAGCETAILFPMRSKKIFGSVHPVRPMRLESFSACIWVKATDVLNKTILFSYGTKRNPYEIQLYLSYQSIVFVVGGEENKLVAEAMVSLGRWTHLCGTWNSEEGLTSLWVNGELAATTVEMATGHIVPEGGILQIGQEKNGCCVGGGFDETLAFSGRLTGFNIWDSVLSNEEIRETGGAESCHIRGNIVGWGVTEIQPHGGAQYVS

Q: For PTX3 (from UniProt P26022), which Kd is on record?
A: 110 nM
